Measured values reported in US20100287629A1.

Key:
[1] = biological target: recombinant soluble human CD4 (human) (UniProt P01730); experiment: BIAcore; rCD4 coupled to chip, mAb flowed
[2] = biological target: recombinant soluble human CD4 (human) (UniProt P01730); experiment: SPR sensor chip; sCD4 amine-coupled, mAb flowed

- Ka [1]: 3.7e+10 M⁻¹
- koff [1]: 4.2e-06 s⁻¹
- kon [1]: 150000 M⁻¹ s⁻¹
- Ka [2]: 3.7e+10 M⁻¹
- koff [2]: 4.2e-06 s⁻¹
- kon [2]: 150000 M⁻¹ s⁻¹
Substance: Leu3a, mouse anti-human CD4 monoclonal antibody
